Measurements: patent publication US20220281986A1 (RESEARCH FOUNDATION FOR THE STATE UNIVERSITY OF NEW YORK, published 2022)

Target: T1, peptide corresponding to the N-terminal domain of CXCR4 (biotinylated (position not given))
T1 construct: Synthetic peptide (ABclonal), biotinylated and captured on neutravidin-coated plates; also called CXCR4 N-terminal domain; NTD of CXCR4
T1 peptide: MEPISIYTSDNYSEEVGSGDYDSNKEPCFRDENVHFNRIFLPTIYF
Test: ELISA; serially diluted scFv on biotinylated CXCR4 N-terminal peptide captured on neutravidin
Procedure: The binding affinity of the anti-CXCR4 scFv was assessed with an ELISA. Purified anti-CXCR4 scFvs were serially diluted and added to a 96-well plate that was first coated with neutravidin and then coated with the biotinylated CXCR4 N-terminal peptide domain. Anti-FLAG-HRP conjugate (Sigma Aldrich) served as the primary antibody. 100 μL of Ultra-TMB substrate (Thermo Fisher Scientific) was added to quantify the amount of bound anti-CXCR4 scFv. The reaction was then quenched with 12.5 M H₂SO₄ aqueous solution. Readings were taken using a plate reader with the wavelength set to 450 nm.

Kd: 114 nM
B1: CXCR4-scFv (scFv)
scFv: QSVLTQPPSASGTPGQRVTISCSGSSSNIGSNYVYWYQQLPGTAPKLLIYRNNQRPSGVPDRFSGSKSGTSASLAISGLRSEDEGDYYCATWDDSLSGVVFGGGTKLTVLGEGKSSGSGSESKASQVTLKESGAEVKKPGASVKVSCKASGYTFTNFYIHWVRRAPGQGLEWMGIINPSDGRTTYAQKFQGRVTMTRDTSTSTLYMELTSLRSEDTAVYYCGRGGHYSNYFGQPSTWGQGTLVTVSVEASHHHHHH
modifications: labeled with DyLight 650 (NHS ester) in the cell binding and imaging assays; unlabeled in the ELISA
notes: also called scFv#c; anti-CXCR4 scFv
